Experimental data as given in article PMC6888877, “Deconstructing and repurposing the light-regulated interplay between Arabidopsis phytochromes and interacting factors” (Communications Biology, 2019).

T1: Arabidopsis thaliana phytochrome B photosensory core module (AtPhyB PCM) (Arabidopsis thaliana, UniProt P14713 1-651, covalently incorporated bilin chromophore (PCB; co-expressed Synechocystis sp. heme oxygenase 1 and pcyA))
T1 construct: A. thaliana phytochrome B, photosensory core module (PAS-GAF-PHY with N-terminal extension), residues 1-651; Pr state (far-red light or dark) and Pfr state (red light; Pfr/Pr about 0.56/0.44) are told apart by the assays; In the cell experiments other constructs were used (PCM-VP16; PCM 1-650 with CAAX); source: E. coli BL21(DE3), plasmid pDG282, purified (Ni-NTA IMAC, anion exchange)
T1 sequence (looked up): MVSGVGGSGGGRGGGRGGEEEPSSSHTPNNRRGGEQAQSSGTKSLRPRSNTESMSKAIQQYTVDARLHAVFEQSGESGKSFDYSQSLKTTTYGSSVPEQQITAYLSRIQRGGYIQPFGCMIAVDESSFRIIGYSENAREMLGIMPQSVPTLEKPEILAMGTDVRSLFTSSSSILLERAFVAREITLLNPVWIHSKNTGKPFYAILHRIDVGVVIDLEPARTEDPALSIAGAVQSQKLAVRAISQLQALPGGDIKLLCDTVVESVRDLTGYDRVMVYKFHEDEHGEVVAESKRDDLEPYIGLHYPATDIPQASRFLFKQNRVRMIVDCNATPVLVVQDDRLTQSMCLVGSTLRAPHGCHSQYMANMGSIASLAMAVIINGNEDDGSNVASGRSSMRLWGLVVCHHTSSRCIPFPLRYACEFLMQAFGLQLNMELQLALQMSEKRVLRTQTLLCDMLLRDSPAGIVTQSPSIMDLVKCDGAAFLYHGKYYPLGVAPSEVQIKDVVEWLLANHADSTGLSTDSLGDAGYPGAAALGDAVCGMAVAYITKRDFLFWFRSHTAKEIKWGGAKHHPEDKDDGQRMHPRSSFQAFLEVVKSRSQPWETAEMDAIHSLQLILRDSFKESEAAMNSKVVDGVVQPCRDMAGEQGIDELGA

B1: P3.A-EYFP (domain or fragment)
chain: MVDEVVELVWENGQISTQSQSSRSRNIPPPQANSSRAREIGN
B2: AtPIF3 (1-100)-EYFP, P3.100 (domain or fragment, Arabidopsis thaliana, UniProt O80536 1-100, looked up)
chain: MPLFELFRLTKAKLESAQDRNPSPPVDEVVELVWENGQISTQSQSSRSRNIPPPQANSSRAREIGNGSKTTMVDEIPMSVPSLMTGLSQDDDFVPWLNHH
notes: A. thaliana PIF3, residues 1-100; His6-SUMO only on the pET-19b construct that was purified; the pET-28c construct used in lysate has the same AtPIF part, linker and EYFP; also called P3.100-EYFP; source: E. coli BL21(DE3): in crude lysate (pET-28c), and purified (pET-19b; IMAC, SENP2 cleavage, second IMAC, optional anion exchange); not shown: His6-SUMO, N-terminal, cleaved
B3: P3 (AtPIF3 1-100 without the N-terminal region preceding APB.A)-EYFP (domain or fragment)
chain: MVDEVVELVWENGQISTQSQSSRSRNIPPPQANSSRAREIGNGSKTTMVDEIPMSVPSLMTGLSQDDDFVPWLNHH
B4: P6.fus-EYFP (domain or fragment)
chain: MDQEYMELVFENGQILAKGQRSNAITNLGDTQVVPQSHVAAAHETNMLESNKHVD
B5: P3.AA-EYFP (domain or fragment)
chain: MVDEVVELVWENGQISTQSQSSRSRNIPPPQANSSRAREIGNGSKTTMVDEIPMSVPSLVDEVVELVWENGQISTQSQSSRSRFVPWLNHH
B6: P6.AA-EYFP (domain or fragment)
chain: MDQEYMELVFENGQILAKGQRSNVSLHNQRTKSIMDLYEAEYNEDFMKSIIHGGGGDQEYMELVFENGQILAKGQRSNTNMLESNKHVD
B7: P3.fus-EYFP (domain or fragment)
chain: MVDEVVELVWENGQISTQSQSSRSRMTGLSQDDDFVPWLNHH
B8: P6.A-EYFP (domain or fragment)
chain: MDQEYMELVFENGQILAKGQRSNVSLHNQRTKSIMDLYEA
B9: P3.As-EYFP (domain or fragment)
chain: MVDEVVELVWENGQISTQSQSSRSR
B10: P6.As-EYFP (domain or fragment)
chain: MDQEYMELVFENGQILAKGQRSN
B11: P3.AAfus-EYFP (domain or fragment)
chain: MVDEVVELVWENGQISTQSQSSRSRVDEVVELVWENGQISTQSQSSRSRFVPWLNHH
B12: P6.AAfus-EYFP (domain or fragment)
chain: MDQEYMELVFENGQILAKGQRSNDQEYMELVFENGQILAKGQRSNTNMLESNKHVD
B13: AtPIF6 (1-100)-EYFP, P6.100 (domain or fragment, Arabidopsis thaliana, UniProt Q8L5W7 1-100, looked up)
chain: MMFLPTDYCCRLSDQEYMELVFENGQILAKGQRSNVSLHNQRTKSIMDLYEAEYNEDFMKSIIHGGGGAITNLGDTQVVPQSHVAAAHETNMLESNKHVD
notes: A. thaliana PIF6, residues 1-100; His6-SUMO only on the pET-19b construct that was purified; the pET-28c construct used in lysate has the same AtPIF part, linker and EYFP; also called P6.100-EYFP; source: E. coli BL21(DE3): in crude lysate (pET-28c), and purified (pET-19b; IMAC, SENP2 cleavage, second IMAC, optional anion exchange); not shown: His6-SUMO, N-terminal, cleaved
B14: P6 (AtPIF6 1-100 without the N-terminal region preceding APB.A)-EYFP (domain or fragment)
chain: MDQEYMELVFENGQILAKGQRSNVSLHNQRTKSIMDLYEAEYNEDFMKSIIHGGGGAITNLGDTQVVPQSHVAAAHETNMLESNKHVD
B15: P3.A19-EYFP (domain or fragment)
chain: MVDEVVELVWENGQISTQSQ
B16: P6.A19-EYFP (domain or fragment)
chain: MDQEYMELVFENGQILAKGQ

These binders were tested against T1, Arabidopsis thaliana phytochrome B … (assay: fluorescence polarisation; anisotropy of EYFP; 20 nM AtPIF-EYFP constant, AtPhyB PCM 0-10 µM titrated, far-red light (750 nm), Pr state; 20 mM HEPES/HCl pH 7.3, 10 mM NaCl, 100 µg/mL BSA; single-site isotherm). Conditions: both partners purified.

Binder | Kd [nM]
B1 | > 10000
B2 | > 2000
B3 | > 10000
B4 | > 10000
B5 | > 3000
B6 | > 2000
B7 | > 10000
B8 | > 2000
B9 | > 10000
B10 | > 10000
B11 | > 10000
B12 | > 10000

Target: B1
Test: SEC; AtPIF-EYFP variants or EYFP alone, 10 µM, not illuminated; Superdex 200 Increase 10/300 GL; 67 mM sodium phosphate pH 8.0, 200 mM NaCl
Conditions: not given

Binder | stoichiometry N
B1 | 2

The binders below were run against T1, Arabidopsis thaliana phytochrome B … (assay: fluorescence polarisation; anisotropy of EYFP; 20 nM AtPIF-EYFP constant, AtPhyB PCM 0-10 µM titrated, red light (640 nm), Pfr state; KD corrected for the Pfr fraction (about 0.56); 20 mM HEPES/HCl pH 7.3, 10 mM NaCl, 100 µg/mL BSA; single-site isotherm). Conditions: both partners purified.

Binder | Kd [nM]
B1 | 220 ± 40
B2 | 200 ± 70
B13 | 10 ± 8
B3 | 220 ± 40
B4 | 200 ± 90
B5 | 370 ± 40
B6 | 360 ± 40
B14 | 10 ± 7
B7 | 270 ± 60
B8 | 280 ± 100
B9 | 680 ± 60
B10 | 710 ± 80
B11 | 230 ± 50
B12 | 230 ± 30
B15 | > 1000
B16 | > 2000

Target: the molecule itself
Test: SEC; AtPIF-EYFP variants or EYFP alone, 10 µM, not illuminated; Superdex 200 Increase 10/300 GL; 67 mM sodium phosphate pH 8.0, 200 mM NaCl
Conditions: not given

Binder | stoichiometry N
B2 | 2
B13 | 2
B3 | 2
B4 | 2
B5 | 2
B6 | 2
